Experimental findings from patent US12006368 (SURROZEN OPERATING, dated 2024) are described below.

Assay [1] has as its target T1, Fzd1 cysteine rich domain (CRD), C-terminally biotinylated (human, UniProt Q9UP38 101-230). Nature of the assay: summary in Table 3; method not given there.
The target of assay [2] is Fzd7 cysteine rich domain (CRD), C-terminally biotinylated (human, UniProt O75084 36-165). Nature of the assay: summary in Table 3; method not given there.
The target of assay [3] is T1, Fzd1 cysteine rich domain (CRD), …. Nature of the assay: BLI. The method, then: Binding kinetics of antibody fragments to a variety of Fzd cysteine rich domain (CRD) protein targets (Fzd1, Fzd2, Fzd3, Fzd4, Fzd5, Fzd6, Fzd7, Fzd8, Fzd9 and/or Fzd10 CRDs) was determined by bio-layer interferometry (BLI) using Octet Red 96 (PALL ForteBio, Fremont, CA) instruments at 30° C., 1000 rpm with streptavidin (SA) biosensors. C-terminal biotinylated Fzd CRD recombinant protein was diluted to 20 nM in the running buffer (PBS, 0.05% Tween-20, 0.5% BSA, pH 7.2) and captured to the SA biosensor until coupling length reached 0.2 nm. Following capture of the Fzd CRD, the SA biosensor with captured biotinylated-Fzd CRD was dipped into wells containing the relevant antibody fragment at […] (0, 1.37, 4.12, 12.4, 37, 111.1, 333.3, 1000 nM) in running buffer, plus a well with only running buffer as a reference channel. […] was determined by global fitting, 1:1 binding model according to manufacturer recommended settings.
One antibody fragment, clone 001S-A04, was selected for alanine-scanning mutagenesis of CDRs, and the respective Fzd1 binding affinities of the various mutants were determined by Octet BLI as described in Example 1.
For orientation: In BLI a coated tip is dipped into the sample, and binding shifts an interference pattern.

B1: R2M9 (003S-E07) Fab (Fab, V domains shown)
VH: QVQLVQSGAEVKKPGSSVKVSCKASGYTFTNNFMHWVRQAPGQGLEWMGWINPNSGGTKYAQKFQGRVTITADESTSTAYMELSSLRSEDTAVYYCARSVGEVGATMLGIGVWYWFDPWGQGTLVTVSS
VL: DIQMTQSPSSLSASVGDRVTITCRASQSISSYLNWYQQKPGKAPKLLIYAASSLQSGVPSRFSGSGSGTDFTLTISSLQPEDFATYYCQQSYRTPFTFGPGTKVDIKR
notes: heavy chain entry ends in GSGSG-His6
For B1, the binding result in assay [1] and in assay [2] was “binds” throughout.

B2: 001S-A04 mutant VHY8A (Fab, V domains shown)
VH: EVQLVQSGAEVKKPGASVKVSCKASGYTFTSYGISWVRQAPGQGLEWMGWISAYNGNTNYAQKLQGRVTMTTDTSTSTAYMELRSLRSDDTAVYYCASSKEKATYAYGMDVWGQGTTVTVSS
VL: QAVVLQEPSLSVSPGGTVTLTCGLSSGSVSTNYYPSWYQQTPGQAPRTLIYYTNTRSSDVPERFSGSIVGNKAALTITGAQPDDESVYFCLLYLGRGIWVFGGGTKLTVLG
B2: in assay [3], the binding result was “no binding (tested: 1000 nM)”.
